Test results taken from PMC7716773, “Known Evolutionary Paths Are Accessible to Engineered ß-Lactamases Having Altered Protein Motions at the Timescale of Catalytic Turnover” (Frontiers in Molecular Biosciences, 2020).

Tested on: CO/N=C(\C(=O)N[C@@H]1C(=O)N2C(C(=O)O)=C(COC(C)=O)CS[C@H]12)c1csc(N)n1
Assay: purified protein
Conditions: 27°C, cefotaxime 12.5-200 μM, enzyme 5–70 nM

TEM-1 ß-lactamase (TEM-1) (Escherichia coli)
Km: 1,500 ± 900 μM | kcat: 1 ± 0.5 s⁻¹ | kcat/Km: 680 ± 530 M⁻¹ s⁻¹
